Reference: paper PMC3390394, “Characterisation of the First Enzymes Committed to Lysine Biosynthesis in Arabidopsis thaliana” (PLoS ONE, 2012)
Values joined by “and” are separate entries in the source; they are usually repeats but may differ in a detail not shown here. Equal values may be shown once.

Tests used:
[1] = molecular target: the molecule itself; experiment: SEC-MALS; Malvern P3000 column with Viscotek TDA (refractive index, low angle and right angle light scattering); 100 µL of 1.0 mg/mL; 20 mM Tris-HCl, 150 mM NaCl, pH 8.0; 28°C
[2] = molecular target: the molecule itself; experiment: small angle X-ray scattering (SAXS); in-line gel filtration (Superdex 200 5/150), 20 mM Tris.HCl, 150 mM NaCl, pH 8.0, 27°C; initial concentration 2-5 mg/mL; volume and molecular weight by AUTOPOROD, comparison with crystal structures by CRYSOL

| Protein | stoichiometry N [1] | stoichiometry N [2] |
| --- | --- | --- |
| Arabidopsis thaliana dihydrodipicolinate reductase 2 (At-DHDPR2) (enzyme, UniProt Q8LB01 54-349, looked up, Dihydrodipicolinate reductase 2 (At-DHDPR2), Arabidopsis thaliana, plasmid encoding AT3G59890 from TAIR; primers excluded the chloroplast transit peptide as identified by chloroP; residues may remain after TEV cleavage; also called AT3G59890; source: E. coli BL21(DE3) Star, purified (His-Trap, TEV cleavage, second His-trap)) LSMGKSETFEEAGNSVAPGNGISIMVNGCSGKMGKAVIKAADSAGVNIVPTSFGSVEEAGQTVEVCGKEILVHGPTEREKVLSSVFEKYPELIVVDYTIPSAVNDNAELYGKVGVPFVMGTTGGDRTRLYKTVEESKIYAVISPQMGKQVVAFLAAMEIMSEQFPGAFAGYSLEVMESHQASKLDASGTAKAVISCFQKLGVSYDMDQIQLIRDPKQQIEVVGVPEEHVSGHAFHLYHLTSPDKTVSFEFQHNVCGRSIYAEGTVDAVLFLAKKIRSKAEKRIYNMIDVLREGNMR | 2 and 4 |  |
| Escherichia coli dihydrodipicolinate reductase (Ec-DHDPR) (enzyme, E. coli, Dihydrodipicolinate reductase (DapB), Escherichia coli; construct not described; theoretical mass of the tetramer printed as 114,800 Da) MHDANIRVAIAGAGGRMGRQLIQAALALEGVQLGAALEREGSSLLGSDAGELAGAGKTGVTVQSSLDAVKDDFDVFIDFTRPEGTLNHLAFCRQHGKGMVIGTTGFDEAGKQAIRDAAADIAIVFAANFSVGVNVMLKLLEKAAKVMGDYTDIEIIEAHHRHKVDAPSGTALAMGEAIAHALDKDLKDCAVYSREGHTGERVPGTIGFATVRAGDIVGEHTAMFADIGERLEITHKASSRMTFANGAVRSALWLSGKESGLFDMRDVLDLNNL |  | 4 |
| Thermotoga maritima dihydrodipicolinate reductase (Tm-DHDPR) (enzyme, T. maritima, Dihydrodipicolinate reductase (DapB), Thermotoga maritima; construct not described; theoretical mass of the tetramer printed as 99,380 Da) MKYGIVGYSGRMGQEIQKVFSEKGHELVLKVDVNGVEELDSPDVVIDFSSPEALPKTVDLCKKYRAGLVLGTTALKEEHLQMLRELSKEVPVVQAYNFSIGINVLKRFLSELVKVLEDWDVEIVETHHRFKKDAPSGTAILLESALGKSVPIHSLRVGGVPGDHVVVFGNIGETIEIKHRAISRTVFAIGALKAAEFLVGKDPGMYSFEEVIFGGE |  | 4 |
